Test results as given in the supplement of paper PMC7877785.
± gives the uncertainty stated by the source.

Assay: self-splicing fitness, log relative to wild type (ln ratio); higher = more splicing; Tetrahymena group I intron in knt gene, E. coli kanamycin selection, DiMSum; sequences stand for … in CUCUCU…GGAGGGAAAAGUUAUCAGGCAUGCACCUGGUAGCUAGUCUUUAAACCAAUAGAUUGCAUCGGUUUAAAAGGCAAGACCGUCAAAUUGCGGGAAAGGGGUCAACAGCCGUUCAGUACCAAGUCUCAGGGGAAACUUUGAGAUGGCCUUGCAAAGGGUAUGGUAAUAAGCUGACGGACAUGGUCCUAACCACGCAGCCAAGUCCUAAGUCAACAGAUCUUCUGUUGAUAUGGAUGCAGUUCACAGACUAAAUGUCGGUCGGGGAAGAUGUAUUCUUCUCAUAAGAUAUAGUCGGACCUCUCCUUAAUGGGAGCUAGCGGAUGAAGUGAUGCAACACUGGAGCCGCUGGGAACUAAUUUGUAUGCGAAAGUAUAUUGAUUAGUUUUGGAGUACUCGUGGUCG
In short: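 Library with all eight P1ex-region intron nucleotides randomised, intron inside the knt kanamycin-resistance gene on pET-22b(+), in E. coli BL21(DE3). Cells grew overnight at 37°C or 30°C on LB agar with or without 25 μg/mL kanamycin (plus 100 μg/mL carbenicillin, 50 μM IPTG, 0.2% rhamnose), in six replicate transformations. Pooled colonies were amplicon-sequenced on Illumina HiSeq 2500. DiMSum fitness is the error-weighted combination of wild-type-normalised replicate fold changes, kanamycin versus none.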

Sequence | self-splicing fitness (ln) (30 °C) | self-splicing fitness (ln) (37 °C)
GGACAGCAAUAUUACGAAUG | -2.09 ± 0.17 | -1.9 ± 0.22
GGACAGCAAUAUUACGACUG | -0.809 ± 0.12 | -0.232 ± 0.17
GGACAGCAAUAUUACGAGUA | -2.92 ± 0.15 | -1.79 ± 0.13
GGACAGCAAUAUUACGAUCU | -2.62 ± 0.18 | -1.8 ± 0.2
GGACAGCAAUAUUACGCACC | -2.25 ± 0.25 | -1.8 ± 0.38
GGACAGCAAUAUUACGCAUC | -3 ± 0.12 | -0.76 ± 0.13
GGACAGCAAUAUUACGCCCC | -0.414 ± 0.41 | 
GGACAGCAAUAUUACGCUAC | -4.74 ± 0.27 | -2.33 ± 0.24
GGACAGCAAUAUUACGCUAG | -1.85 ± 0.13 | -0.798 ± 0.17
GGACAGCAAUAUUACGCUUC | -1.74 ± 0.19 | 
GGACAGCAAUAUUACGGACG | -0.636 ± 0.12 | -0.327 ± 0.12
GGACAGCAAUAUUACGGAGG | -3.52 ± 0.15 | -0.672 ± 0.096
GGACAGCAAUAUUACGGCGC | 0.0232 ± 0.12 | 0.203 ± 0.13
GGACAGCAAUAUUACGGGCA | -0.731 ± 0.18 | -0.477 ± 0.17
GGACAGCAAUAUUACGGUAG | -1.7 ± 0.061 | -1.32 ± 0.073
GGACAGCAAUAUUACGGUUA | -0.28 ± 0.097 | 0.525 ± 0.11
GGACAGCAAUAUUACGUAAA | -0.529 ± 0.12 | 0.362 ± 0.16
GGACAGCAAUAUUACGUAAG | -0.165 ± 0.061 | 0.19 ± 0.079
GGACAGCAAUAUUACGUAGC | -0.679 ± 0.084 | -0.618 ± 0.098
GGACAGCAAUAUUACGUAGG | -0.254 ± 0.053 | -0.517 ± 0.063

Sequence | self-splicing fitness (ln) (30 °C) | self-splicing fitness (ln) (37 °C)
GGACAGCAAUAUUACGUAGU | -1.61 ± 0.059 | -1.15 ± 0.085
GGACAGCAAUAUUACGUCAA | -0.0403 ± 0.063 | 0.0855 ± 0.085
GGACAGCAAUAUUACGUCAC | -2.41 ± 0.17 | -1.56 ± 0.2
GGACAGCAAUAUUACGUGAA | -0.306 ± 0.057 | -0.142 ± 0.062
GGAGAGCAAUAUUACGAAGU | -3.48 ± 0.37 | -1.33 ± 0.2
GGAGAGCAAUAUUACGAGGU | -3.34 ± 0.32 | -3.01 ± 0.37
GGAGAGCAAUAUUACGAUGU | -1.92 ± 0.15 | -1.74 ± 0.28
GGAGAGCAAUAUUACGCAGC | -1.26 ± 0.17 | -2.78 ± 0.26
GGAGAGCAAUAUUACGGAUC | -1.91 ± 0.12 | -0.404 ± 0.14
GGAGAGCAAUAUUACGGAUU |  | -1.62 ± 0.22
GGAGAGCAAUAUUACGGCUA | -2.06 ± 0.32 | -1.25 ± 0.18
GGAGAGCAAUAUUACGGGUU | -3.71 ± 0.24 | -2.46 ± 0.19
GGAGAGCAAUAUUACGGUCG | -1.18 ± 0.25 | -1.56 ± 0.29
GGAGAGCAAUAUUACGUAGG | -3.43 ± 0.25 | -0.82 ± 0.25
GGAGAGCAAUAUUACGUCCU | -3.2 ± 0.24 | -3.27 ± 0.43
GGAGAGCAAUAUUACGUCGA | -2.7 ± 0.32 | -1.53 ± 0.26
GGAGAGCAAUAUUACGUCGU | -2.89 ± 0.21 | -2.5 ± 0.27
GGAGAGCAAUAUUACGUGUG | -4.29 ± 0.34 | -3.29 ± 0.27
GGAGAGCAAUAUUACGUUAG | -3.5 ± 0.23 | -1.54 ± 0.41
